Measurements reported in patent US20020177126A1.

Tests used:
[1] = target: RSV F glycoprotein (NUF4) (respiratory syncytial virus (RSV)) (UniProt P03420); test: ITC, NUF4 titrated into antibody
[2] = target: RSV F glycoprotein (NUF4) (respiratory syncytial virus (RSV)) (UniProt P03420); test: BIAcore, Mab vs NUF4, 1:1
[3] = target: RSV F glycoprotein (NUF4) (respiratory syncytial virus (RSV)) (UniProt P03420); test: BIAcore, Mab vs NUF4, 2:1
[4] = target: RSV F glycoprotein (NUF4) (respiratory syncytial virus (RSV)) (UniProt P03420); test: ITC, NUF4 titrated into antibody, 35 °C

Chain of RSV F glycoprotein (NUF4) (respiratory syncytial virus (RSV)) (P03420 26-524): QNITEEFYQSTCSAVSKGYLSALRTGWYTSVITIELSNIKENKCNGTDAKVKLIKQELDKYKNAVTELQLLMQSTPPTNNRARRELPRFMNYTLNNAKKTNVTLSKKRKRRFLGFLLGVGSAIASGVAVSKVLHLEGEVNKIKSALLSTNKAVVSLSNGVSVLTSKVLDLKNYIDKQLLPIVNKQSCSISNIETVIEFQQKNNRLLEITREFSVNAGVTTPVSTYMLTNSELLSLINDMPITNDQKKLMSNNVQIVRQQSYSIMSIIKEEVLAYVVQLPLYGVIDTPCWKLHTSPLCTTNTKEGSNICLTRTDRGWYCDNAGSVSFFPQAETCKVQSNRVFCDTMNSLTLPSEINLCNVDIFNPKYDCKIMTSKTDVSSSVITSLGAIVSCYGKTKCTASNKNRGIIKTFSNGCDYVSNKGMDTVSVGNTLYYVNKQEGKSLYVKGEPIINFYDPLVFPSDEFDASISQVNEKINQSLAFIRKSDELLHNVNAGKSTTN
Chain of A4B4 (monoclonal antibody) (VH): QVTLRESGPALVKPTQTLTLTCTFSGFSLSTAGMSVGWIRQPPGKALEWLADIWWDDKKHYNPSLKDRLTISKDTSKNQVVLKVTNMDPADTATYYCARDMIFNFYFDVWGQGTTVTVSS
Chain of A4B4 (monoclonal antibody) (VL): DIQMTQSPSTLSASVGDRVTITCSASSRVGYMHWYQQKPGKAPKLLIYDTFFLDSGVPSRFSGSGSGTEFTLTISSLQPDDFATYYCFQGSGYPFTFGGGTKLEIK
Chain of SYNAGIS® (antibody) (VH): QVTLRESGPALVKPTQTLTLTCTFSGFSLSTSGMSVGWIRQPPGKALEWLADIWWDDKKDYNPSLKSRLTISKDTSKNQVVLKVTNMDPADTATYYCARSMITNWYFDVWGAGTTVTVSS
Chain of SYNAGIS® (antibody) (VL): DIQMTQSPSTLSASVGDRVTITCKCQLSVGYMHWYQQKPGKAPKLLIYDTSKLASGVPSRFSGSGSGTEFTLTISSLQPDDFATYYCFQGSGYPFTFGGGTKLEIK

Substance	Hb in kJ mol^-1 (binding enthalpy) [1] [kcal/mol]	Kd [2] [nM]	koff [2] [s⁻¹]	kon [2] [M⁻¹ s⁻¹]	number in parentheses after KD (fold vs SYNAGIS) [2] [fold]	Kd [3] [nM]	koff [3] [s⁻¹]	kon [3] [M⁻¹ s⁻¹]	number in parentheses after KD (fold vs SYNAGIS) [3] [fold]	Ka [4] [M⁻¹]	Kd [4] [nM]
A4B4 (monoclonal antibody)	22.2	0.57	0.000282	496000	15	2	0.000401	203000	156	2.69e+08	3.7
SYNAGIS® (antibody)	17	8.7	0.00265	304000	1	312	0.0242	78000	1	1.23e+06	–
